Test results: the supplement of paper PMC9170038

Tested on: MS2 coat protein
Test: apparent KD of MS2 coat protein; designed switch direction (-1 OFF switch, 1 ON switch): -1; higher = weaker reporter binding
Method in brief: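 Each step of the titration lasted 0.8–1.5 h at the lowest concentration and 10–20 min at the highest. The protein, SNAP-549-labelled MS2 coat protein, went from 0.7 or 1.5 nM doubling to 3 µM over RNA switches transcribed on Illumina chips by stalled E. coli RNA polymerase. Normalised cluster fluorescence was curve-fitted, and the per-design median over clusters is given as apparent KD.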

[1] = Eterna round: R95, input ligand: microRNA oligo, concentration not stated
[2] = input ligand: microRNA oligo, concentration not stated

## GGACCUGGAGGAUAUAGAGCACUGAACAUGAGGAUCACCCAUGUGACCGGUGUAGUGCACCUAGAAGGCCGCGGCA [Eternabot (L1) Solution 40] (Eterna round: R97, puzzle: Exclusion 5)
Input ligand: FMN 200 uM
  apparent KD of MS2 coat protein: 129 nM
Input ligand: none
  apparent KD of MS2 coat protein: 65.4 nM

## GGAGAGGGAGGAUAUGCGCCAACAAACAUGAGGAUCACCCAUGUGGUGCUCCAAGAAAGGGUAGAAGGCCCUCUCC [Default title] (puzzle: Exclusion 5)
Eterna round: R95, input ligand: FMN 200 uM
  apparent KD of MS2 coat protein: 619 nM
[1]
  apparent KD of MS2 coat protein: 275 nM
Eterna round: R95, input ligand: none
  apparent KD of MS2 coat protein: 295 nM

## GGAGCUGGAGGAUAUACAAGAUCGAAAGAUCAAAGAUCCGUACAUGAGGAUCACCCAUGUAGAAGGCCAGCUCC (Eterna round: R97, puzzle: Exclusion 2)
Input ligand: FMN 200 uM
  apparent KD of MS2 coat protein: 763 nM
Input ligand: none
  apparent KD of MS2 coat protein: 40.4 nM

## GGAGGACGAGCAGGAUAUUUUCACAUGAGGAUCACCCAUGUGUACUCAGGGUAAUCCUCCGCCGAAAAGAAGGGUUCGGAAGAA [JL ViennaUCT Socedi mod 1] (Eterna round: R96, puzzle: Exclusion NG 2)
Input ligand: FMN 200 uM
  apparent KD of MS2 coat protein: 46.7 nM
[2]
  apparent KD of MS2 coat protein: 33.2 nM
Input ligand: none
  apparent KD of MS2 coat protein: 50.8 nM

## GGAGUGUAAGGAUAUAAGACAAGGGCUAUCGGAGCCCAAAUUUAGAAGGUACAUGAGGAUCACCCAUGUGAUGA [Eternabot (L1) Solution 5] (Eterna round: R97, puzzle: Exclusion 4)
Input ligand: FMN 200 uM
  apparent KD of MS2 coat protein: 124 nM
Input ligand: none
  apparent KD of MS2 coat protein: 27.2 nM

## GGAUAAAACUGAGGAUAUACGUAUCGCUAGCGAGUAGAAGGCAGACAUGAGGAUCACCCAUGUGAGUUCUCGAUAAGAAACACG [Prohibition 60 - Jieux - Exclusion NG 1] (Eterna round: R96, puzzle: Exclusion NG 1)
Input ligand: FMN 200 uM
  apparent KD of MS2 coat protein: 163 nM
[2]
  apparent KD of MS2 coat protein: 35.5 nM
Input ligand: none
  apparent KD of MS2 coat protein: 53.3 nM

## GGAUAAAAGACAGGAUAUACGCACCACUAACGAGUAGAAGGGUCACAUGAGGAUCACCCAUGUGAGUUCUCAAUAAGAAACACG [Prohibition 67 - Jieux - Exclusion NG 1] (Eterna round: R96, puzzle: Exclusion NG 1)
Input ligand: FMN 200 uM
  apparent KD of MS2 coat protein: 14.2 nM
[2]
  apparent KD of MS2 coat protein: 16.9 nM
Input ligand: none
  apparent KD of MS2 coat protein: 17.3 nM

## GGAUAAAAUCGAGGAUAUACGCACCACUAACGAGUAGAAGGCGAACAUGAGGAUCACCCAUGUGAGUUCUCAAUAAGAAACACG [Prohibition 68 - Jieux - Exclusion NG 1] (Eterna round: R96, puzzle: Exclusion NG 1)
Input ligand: FMN 200 uM
  apparent KD of MS2 coat protein: 40.5 nM
[2]
  apparent KD of MS2 coat protein: 23.9 nM
Input ligand: none
  apparent KD of MS2 coat protein: 35.1 nM

## GGAUCACAUGUGAGGAUAUGCAGGUCCUUGGAUCUGCAGAAGGCACAUGAGGAUCACCCAUGUGAUCAAGAUCC [Mat - Exclusion 4 - Eli Mod - D49] (Eterna round: R97, puzzle: Brourd's mod of Exclusion 4)
Input ligand: FMN 200 uM
  apparent KD of MS2 coat protein: 47.4 nM
Input ligand: none
  apparent KD of MS2 coat protein: 61.2 nM

## GGAUCGAGUGUGAGGAUAUGCUGGUCCUAAGAUCAGCAGAAGGCACAUGAGGAUCACCCAUGUGAAAACGGUCC [Mat - Exclusion 4 - JL Mod - D71] (Eterna round: R96, puzzle: Brourd's mod of Exclusion 4)
Input ligand: FMN 200 uM
  apparent KD of MS2 coat protein: 183 nM
[2]
  apparent KD of MS2 coat protein: 24.2 nM
Input ligand: none
  apparent KD of MS2 coat protein: 29.3 nM

## GGAUCGAGUGUGAGGAUAUGCUGGUCCUAAGAUCAGCAGAAGGCACAUGAGGAUCACCCAUGUGAAAACGGUCC [Mat - Exclusion 4 - JL Mod - D71] (puzzle: Brourd's mod of Exclusion 4)
[1]
  apparent KD of MS2 coat protein: 23.5 nM

## GGAUUCCAGUGAGGAUAUCCAAAUAAAAGCCAUGGAGAAGGCACAUGAGGAUCACCCAUGUAGGGCAAUAGCAGCGACCGCUGC [Usxeer] (Eterna round: R96, puzzle: Exclusion NG 1)
Input ligand: FMN 200 uM
  apparent KD of MS2 coat protein: 60.8 nM
[2]
  apparent KD of MS2 coat protein: 20.7 nM
Input ligand: none
  apparent KD of MS2 coat protein: 35.1 nM

## GGAUUUACUGAGGAUAUUGCAUCACCCGACUGAUAAGAAGGCAGAACAUGAGGAUCACCCAUGUGGGUAGUCAA [Bingo-Bango-3] (Eterna round: R97, puzzle: Exclusion 6)
Input ligand: FMN 200 uM
  apparent KD of MS2 coat protein: 29.6 nM
Input ligand: none
  apparent KD of MS2 coat protein: 19.5 nM

## GGAUUUACUGAGGAUAUUGCAUCACCCGAUUGAUAAGAAGGCAGAACAUGAGGAUCACCCAUGUGGGUAGUCAA [Bingo-Bango-2] (Eterna round: R97, puzzle: Exclusion 6)
Input ligand: FMN 200 uM
  apparent KD of MS2 coat protein: 80.2 nM
Input ligand: none
  apparent KD of MS2 coat protein: 39.3 nM

## GGCAUCGGAGGAUAUACUUAUGGUGAUGUUCGAAGCUUUCUACUUGAGGAUCACCCAAGUAGAAGGCCGAUGCC [jl-ex2.4.78 ViennaUCT mod] (Eterna round: R97, puzzle: Exclusion 2)
Input ligand: FMN 200 uM
  apparent KD of MS2 coat protein: 5.28 nM
Input ligand: none
  apparent KD of MS2 coat protein: 17.4 nM

## GGCGAGCGAGGAUAUACAGGGUAUCCGACUCGCCGCGGGCGACAUGAGGAUCACCCAUGUAGAAGGCGCACGCG [EX2 A.18] (Eterna round: R97, puzzle: Exclusion 2)
Input ligand: FMN 200 uM
  apparent KD of MS2 coat protein: 13.9 nM
Input ligand: none
  apparent KD of MS2 coat protein: 17.6 nM

## GGCGCACAUGAGGAUCACCCAUGUGAGGAUAUGUGGCGAUCGUCGAUAGACGAUAGCCACAGAAGGCACAUGCC [Mat - Exclusion 1 - Eli Mod - D20] (Eterna round: R97, puzzle: Exclusion 1)
Input ligand: FMN 200 uM
  apparent KD of MS2 coat protein: 74 nM
Input ligand: none
  apparent KD of MS2 coat protein: 33.3 nM
